Source: patent publication US20220242973A1 (Molecular Partners, published 2022)
Positions count from the first letter of the chain named. Each block holds one binder with its values, some of them ahead of it.

Experiments:
[1] = target: T1, Human FAP expressed on the cell surface (WI38, CHO-FAP1.9, U87MG cells) (human, UniProt Q12884 1-760); assay: FACS on WI38 cells
T1 construct: whole, on cells; Endogenous on WI38 and U87MG cells; from a human FAP cDNA (OriGene) in CHO-FAP1.9 cells; also called hFAP; FAP+ cells
T1 sequence (looked up): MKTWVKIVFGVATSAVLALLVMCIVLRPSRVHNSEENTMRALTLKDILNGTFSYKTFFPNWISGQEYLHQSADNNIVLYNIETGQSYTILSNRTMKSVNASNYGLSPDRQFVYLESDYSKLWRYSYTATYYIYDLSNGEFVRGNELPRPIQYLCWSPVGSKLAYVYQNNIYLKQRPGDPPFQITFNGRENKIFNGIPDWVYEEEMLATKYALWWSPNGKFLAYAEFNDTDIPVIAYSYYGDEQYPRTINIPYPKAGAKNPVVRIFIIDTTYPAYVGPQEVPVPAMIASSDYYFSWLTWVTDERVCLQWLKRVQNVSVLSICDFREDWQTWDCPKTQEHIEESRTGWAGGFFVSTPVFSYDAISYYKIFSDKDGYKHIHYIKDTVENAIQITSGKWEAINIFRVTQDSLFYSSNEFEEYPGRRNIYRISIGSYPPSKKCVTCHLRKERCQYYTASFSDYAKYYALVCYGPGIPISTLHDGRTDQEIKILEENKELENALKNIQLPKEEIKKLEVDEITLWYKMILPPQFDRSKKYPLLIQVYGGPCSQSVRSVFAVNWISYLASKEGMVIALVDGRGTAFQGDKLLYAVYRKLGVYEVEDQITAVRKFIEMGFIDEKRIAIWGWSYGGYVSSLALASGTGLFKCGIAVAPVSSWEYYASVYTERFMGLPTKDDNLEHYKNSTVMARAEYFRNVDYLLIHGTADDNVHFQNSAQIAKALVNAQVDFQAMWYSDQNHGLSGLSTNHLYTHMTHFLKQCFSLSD
Method: Using multi-well plates, 20,000 WI38 cells were added per well in 50 μl of PBS. 50 μl of appropriate dilutions (2× dilution steps) of ankyrin repeat protein was then added to the cells and incubated for 30 minutes on ice. After the ankyrin repeat protein-binding reaction, cells were washed twice with PBS. Direct immunofluorescent detection of the His-tagged ankyrin repeat proteins using Penta-His AF647 conjugate (QIAgen) and determination of live cells using LIVE/DEAD™ Fixable Green Dead Cell Stain Kit (ThermoFisher) were then performed together in one step. The Penta-His AF647 conjugate and the LIVE/DEAD™ Fixable Green dye were applied to the cells together in 1/200 (Penta-His) and 1/1000 (LID Fixable) final dilutions and incubated for 20-30 minutes on ice. After washing the cells with PBS, cells were re-suspended in 1× CellFix™ buffer (BD Biosciences) (10× stock was diluted 1/10 in water). […] Acquisition and FACS analysis, including the determination of median fluorescence intensity (MFI), were done within 5 days after staining using an AttuneNxT instrument. […]
Similarly, binding of the engineered ankyrin repeat proteins, i.e. DARPin® protein #34 and DARPin® protein #35, to FAP-expressing WI38 cells was also tested essentially as described above. Fold increase MFI was calculated by dividing the sample MFI by the MFI of the background control. […]

[2] = target: T1, Human FAP expressed on the cell surface …; assay: FACS on CHO-FAP1.9 cells (human FAP transfectants)
[3] = target: T2, Recombinant human FAP (fibroblast activation protein) (human, UniProt Q12884 26-760); assay: cell-based or functional assay
T2 sequence (looked up): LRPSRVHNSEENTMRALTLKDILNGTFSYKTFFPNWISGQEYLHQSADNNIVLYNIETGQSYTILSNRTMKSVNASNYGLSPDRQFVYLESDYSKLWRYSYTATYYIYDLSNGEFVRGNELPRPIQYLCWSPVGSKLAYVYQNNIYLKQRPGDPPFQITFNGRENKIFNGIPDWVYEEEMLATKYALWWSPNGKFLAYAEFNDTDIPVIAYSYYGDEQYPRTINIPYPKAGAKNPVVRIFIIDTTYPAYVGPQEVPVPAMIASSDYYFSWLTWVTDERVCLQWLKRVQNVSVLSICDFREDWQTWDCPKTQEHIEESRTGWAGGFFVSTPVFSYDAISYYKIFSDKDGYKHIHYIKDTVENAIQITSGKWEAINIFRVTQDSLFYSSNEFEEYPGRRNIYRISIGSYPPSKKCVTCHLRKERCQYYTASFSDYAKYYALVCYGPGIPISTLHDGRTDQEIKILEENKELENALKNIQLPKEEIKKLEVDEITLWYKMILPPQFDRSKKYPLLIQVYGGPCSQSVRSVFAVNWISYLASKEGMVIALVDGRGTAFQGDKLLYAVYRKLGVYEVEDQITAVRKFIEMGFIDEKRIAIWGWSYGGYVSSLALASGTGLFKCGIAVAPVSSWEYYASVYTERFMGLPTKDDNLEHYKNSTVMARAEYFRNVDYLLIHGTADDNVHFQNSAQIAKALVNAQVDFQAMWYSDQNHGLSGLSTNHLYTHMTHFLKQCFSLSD

[4] = target: T1, Human FAP expressed on the cell surface …; assay: FACS on FAP-expressing WI38 cells, Penta-His AF647 detection
Method in brief: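 WI38 cells (20,000/well) incubated 30 min on ice with 2-fold dilutions of His-tagged ankyrin repeat proteins, washed, stained with Penta-His AF647 plus live/dead dye, fixed. Median fluorescence by flow cytometry; EC50 from non-linear regression of binding curves.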

B1: DARPin® protein #34 (designed binder)
chain: MRGSHHHHHHGSDLGKKLLEAARAGQDDEVRELLKAGADVNAKDVLGWTPLHLAAFEGHLEIVEVLLKAGADVNAKDKKGWTPLQLAARTGHLEIVEVLLKAGADVNAKDHIGATPLHLAAWQGHPEIVEVLLKAGADVNAQDKSGKTPADLAADAGHEDIAEVLQKAA
EC50 [1]: 736 pM | EC50 [2]: 1190 pM | FAP activity (%) [3]: 93%

B2: DARPin® protein #36 (designed binder)
chain: B1 chain with E32I, K35A, A168L, A169N
EC50 [4]: 235 pM

B3: DARPin® protein #35 (designed binder)
chain: MRGSHHHHHHGSDLGEKLLVAALYGQDDEVRELLKAGADVNAKDQWGLTPLHKAALQGHLEIVEVLLKAGADVNAKDERGHTPLHWAARFGHLEIVEVLLKAGADVNAQDQKGYTPADLAALWGHEDIAEVLQKAA
EC50 [1]: 994 pM | EC50 [2]: 2020 pM | FAP activity (%) [3]: 90%

Continued, values first:

EC50 [4]: 118 pM
B4: DARPin® protein #37 (designed binder)
chain: B3 chain with E32I, K35A, A135L, A136N

EC50 [4]: 106 pM
B5: DARPin® protein #38 (designed binder)
chain: MRGSHHHHHHGSDLGKKLLEAARAGQDDEVRELLKAGADVNAKDEVGRTPLHLAAQIGHLEIVEVLLKAGADVNAKNRWGVTPLHVAAWVGHLEIVEVLLKAGADVNAKDQQGATPLHLAAIRGHLEIVEVLLKAGADVNAQDKSGKTPADLAADAGHEDIAEVLQKLN

EC50 [4]: 202 pM
B6: DARPin® protein #39 (designed binder)
chain: MRGSHHHHHHGSDLGKKLLEAARAGQDDEVRELLKAGADVNAKDEWGKTPLHLAAIRGHLEIVEVLLKAGADVNAKDTHGITPLHLAAFVGHLEIVEVLLKAGADVNAKDYLGRTPLHIAAAKGHLEIVEVLLKAGADVNAQDKSGKTPADLAADAGHEDIVEVLQKLN
